Experimental data taken from patent US20230293638A1 (Eli Lilly, published 2023).
Numbered stars: 1 amine (or outer) side, 2 acyl side, 3 side chain; on linkers, the order of the positions; unused ones are H or OH. Square brackets hold non-standard residues; d marks the D form. Side chains are listed from the residue outwards. Ends that are not written are not given here. * marks the point of attachment. C20 diacid = O=C(O)CCCCCCCCCCCCCCCCCCC(=O)*; γGlu = O=C(O)[C@H](CCC(=O)[*:2])N[*:1]; AEEA = NCCOCCOCC(=O)O; Aib = CC(C)(N)C(=O)O

Molecular target: human GLP-1 receptor (human, UniProt P43220 24-463)
Assay: cell-based or functional assay

Binder | hGLPIR cAMP EC50 ratio
Y[Aib]EGTFTSDYSILLDKIAQ[Aib]AFIEYLIEGGPK([AEEA-AEEA-γGlu-C20 diacid])SGAPPPS-NH2 (N-terminus assumed; SMILES CC[C@H](C)[C@H](NC(=O)[C@H](CCCCN)NC(=O)[C@H](CC(=O)O)NC(=O)[C@H](CC(C)C)NC(=O)[C@H](CC(C)C)NC(=O)[C@@H](NC(=O)[C@H](CO)NC(=O)[C@H](Cc1ccc(O)cc1)NC(=O)[C@H](CC(=O)O)NC(=O)[C@H](CO)NC(=O)[C@@H](NC(=O)[C@H](Cc1ccccc1)NC(=O)[C@@H](NC(=O)CNC(=O)[C@H](CCC(=O)O)NC(=O)C(C)(C)NC(=O)[C@@H](N)Cc1ccc(O)cc1)[C@@H](C)O)[C@@H](C)O)[C@@H](C)CC)C(=O)N[C@@H](C)C(=O)N[C@@H](CCC(N)=O)C(=O)NC(C)(C)C(=O)N[C@@H](C)C(=O)N[C@@H](Cc1ccccc1)C(=O)N[C@H](C(=O)N[C@@H](CCC(=O)O)C(=O)N[C@@H](Cc1ccc(O)cc1)C(=O)N[C@@H](CC(C)C)C(=O)N[C@H](C(=O)N[C@@H](CCC(=O)O)C(=O)NCC(=O)NCC(=O)N1CCC[C@H]1C(=O)N[C@@H](CCCCNC(=O)COCCOCCNC(=O)COCCOCCNC(=O)CC[C@H](NC(=O)CCCCCCCCCCCCCCCCCCC(=O)O)C(=O)O)C(=O)N[C@@H](CO)C(=O)NCC(=O)N[C@@H](C)C(=O)N1CCC[C@H]1C(=O)N1CCC[C@H]1C(=O)N1CCC[C@H]1C(=O)N[C@@H](CO)C(N)=O)[C@@H](C)CC)[C@@H](C)CC) [Peptide 41] | 0.0637
Y[Aib]EGTFTSDYSILLDKIAQ[Aib]AFIEYLIEGGPSSGAPK([AEEA-AEEA-γGlu-C20 diacid])PS-NH2 (N-terminus assumed; SMILES CC[C@H](C)[C@H](NC(=O)[C@H](CCCCN)NC(=O)[C@H](CC(=O)O)NC(=O)[C@H](CC(C)C)NC(=O)[C@H](CC(C)C)NC(=O)[C@@H](NC(=O)[C@H](CO)NC(=O)[C@H](Cc1ccc(O)cc1)NC(=O)[C@H](CC(=O)O)NC(=O)[C@H](CO)NC(=O)[C@@H](NC(=O)[C@H](Cc1ccccc1)NC(=O)[C@@H](NC(=O)CNC(=O)[C@H](CCC(=O)O)NC(=O)C(C)(C)NC(=O)[C@@H](N)Cc1ccc(O)cc1)[C@@H](C)O)[C@@H](C)O)[C@@H](C)CC)C(=O)N[C@@H](C)C(=O)N[C@@H](CCC(N)=O)C(=O)NC(C)(C)C(=O)N[C@@H](C)C(=O)N[C@@H](Cc1ccccc1)C(=O)N[C@H](C(=O)N[C@@H](CCC(=O)O)C(=O)N[C@@H](Cc1ccc(O)cc1)C(=O)N[C@@H](CC(C)C)C(=O)N[C@H](C(=O)N[C@@H](CCC(=O)O)C(=O)NCC(=O)NCC(=O)N1CCC[C@H]1C(=O)N[C@@H](CO)C(=O)N[C@@H](CO)C(=O)NCC(=O)N[C@@H](C)C(=O)N1CCC[C@H]1C(=O)N[C@@H](CCCCNC(=O)COCCOCCNC(=O)COCCOCCNC(=O)CC[C@H](NC(=O)CCCCCCCCCCCCCCCCCCC(=O)O)C(=O)O)C(=O)N1CCC[C@H]1C(=O)N[C@@H](CO)C(N)=O)[C@@H](C)CC)[C@@H](C)CC) [Peptide 46] | 0.0969
